From patent US11994512B2, “Single-cell genomic methods to generate ex vivo cell systems that recapitulate in vivo biology with improved fidelity” (Massachusetts Institute of Technology, priority 2018, dated 2024)

Test system: intracellular proteome of ENR+CD and ENR organoids
Test: LC-MS/MS TMT proteomics of ENR+CD versus ENR organoids
Type: cell-based, C57BL/6 mice
Details: for Average logFC: ENR+CD versus ENR organoids, sample pairs in aggregate (n=4, 2 technical replicates from two biological donors); for M1-1 Log2 Median Normalized / M1-2 Log2 Median Normalized / M2-1 Log2 Median Normalized / M2-2 Log2 Median Normalized: protein abundance ratio ENR+CD versus ENR organoids, LC-MS/MS TMT proteomics; for M1-1 Log2 Median Normalized: sample pair M1-1; for M1-2 Log2 Median Normalized: sample pair M1-2; for M2-1 Log2 Median Normalized: sample pair M2-1; for M2-2 Log2 Median Normalized: sample pair M2-2; for change: up = enriched in ENR+CD, down = enriched in ENR, FDR<0.05 and log fold change cut-off

Molecule | Average logFC | M1-1 Log2 Median Normalized | M1-2 Log2 Median Normalized | M2-1 Log2 Median Normalized | M2-2 Log2 Median Normalized | change
Q62431 (protein, UniProt Q62431 1-601, looked up, full-length) MKLQAVMETLIQRQQRARQELEARQAPPPPPPEPTGVRARTTMTDEDREPENARMHRTQMAALAAMRAAAAGLGHPSSPGGSEDGPPISGDEDTAREGTLSSPALHGSVLEGAGHAEGDRHLMDVGSDDDDTKSKWEEQELEELGEEEEEEEEEDDFEEEEEEEEGLGPPESASLGTAGLFTRKAPPAQAFRGDGGPRMLSGPERLGPGPAHPSHMASQMPPPDHGDWTFEEQFKQLYELDADPKRKEFLDDLFSFMQKRGTPVNRIPIMAKQVLDLFMLYVLVTEKGGLVEVINKKLWREITKGLNLPTSITSAAFTLRTQYMKYLYPYECERRGLSSPNELQAAIDSNRREGRRQSFGGSLFAYSPSGAHSMLPSPKLPVTPLGLAASTNGSSITPAPKIKKEEDSAIPITVPGRLPVSLAGHPVVAAQAAAVQAAAAQAAVAAQAAALEQLREKLESTEPPEKKMALVADEQQRLMQRAVQQSFLAMTAQLPMNIRINSQASESRQDSAVSLTSANGSNSISMSVEMNGIVYTGVLFAQPPPPTAPSAPGKGGVSSIGTNTTTGSRTGASGSTVSGGQVGLPGVSTPTMSSTSNNSLP | 1.251 | 1.672 | 1.343 | 1.2465 | 0.741 | up
Q64669 (protein, UniProt Q64669 1-274, looked up, full-length) MAARRALIVLAHSEKTSFNYAMKEAAVEALKKRGWEVLESDLYAMNFNPIISRNDITGELKDSKNFQYPSESSLAYKEGRLSPDIVAEHKKLEAADLVIFQFPLQWFGVPAILKGWFERVLVAGFAYTYAAMYDNGPFQNKKTLLSITTGGSGSMYSLQGVHGDMNVILWPIQSGILRFCGFQVLEPQLVYSIGHTPPDARMQILEGWKKRLETVWEETPLYFAPSSLFDLNFQAGFLMKKEVQEEQKKNKFGLSVGHHLGKSIPADNQIKARK | −1.573 | −1.603 | −2.001 | −1.5715 | −0.844 | down
Q62395 (protein, UniProt Q62395 1-81, looked up, full-length) METRALWLMLLVVLVAGSSGIAADYVGLSPSQCMVPANVRVDCGYPSVTSEQCNNRGCCFDSSIPNVPWCFKPLQETECTF | 1.185 | 1.037 | 1.294 | 0.4235 | 1.984 | up
Q61263 (protein, UniProt Q61263 1-540, looked up, full-length) MSLRNRLSKSGENPEQDEAQKNFMDTYRNGHITMKQLIAKKRLLAAEAEELKPLFMKEVGCHFDDFVTNLIEKSASLDNGGCALTTFSILEEMKKNHRAKDLRAPPEQGKIFISRQSLLDELFEVDHIRTIYHMFIALLILFVLSTIVVDYIDEGRLVLEFNLLAYAFGKFPTVIWTWWAMFLSTLSIPYFLFQRWAHGYSKSSHPLIYSLVHGLLFLVFQLGVLGFVPTYVVLAYTLPPASRFILILEQIRLIMKAHSFVRENIPRVLNAAKEKSSKDPLPTVNQYLYFLFAPTLIYRDNYPRTPTVRWGYVAMQFLQVFGCLFYVYYIFERLCAPLFRNIKQEPFSARVLVLCVFNSILPGVLILFLSFFAFLHCWLNAFAEMLRFGDRMFYKDWWNSTSYSNYYRTWNVVVHDWLYYYVYKDLLWFFSKRFKSAAMLAVFALSAVVHEYALAICLSYFYPVLFVLFMFFGMAFNFIVNDSRKRPIWNIMVWASLFLGYGLILCFYSQEWYARQHCPLKNPTFLDYVRPRTWTCRYVF | 1.308 | 1.563 | 2.15 | 1.0245 | 0.494 | up
Q61391 (protein, UniProt Q61391 1-750, looked up, full-length) MGRSESQMDITDINAPKPKKKQRWTPLEISLSVLVLLLTIIAVTMIALYATYDDGICKSSDCIKSAARLIQNMDASVEPCTDFFKYACGGWLKRNVIPETSSRYSNFDILRDELEVILKDVLQEPKTEDIVAVQKAKTLYRSCINESAIDSRGGQPLLKLLPDIYGWPVASDNWDQTYGTSWTAEKSIAQLNSKYGKKVLINFFVGTDDKNSTQHIIHFDQPRLGLPSRDYYECTGIYKEACTAYVDFMISVARLIRQEQSLPIDENQLSLEMNKVMELEKEIANATTKPEDRNDPMLLYNKMTLAKLQNNFSLEVNGKSFSWSNFTNEIMSTVNINIQNEEEVVVYAPEYLTKLKPILTKYSPRDLQNLMSWRFIMDLVSSLSRNYKESRNAFRKALYGTTSETATWRRCANYVNGNMENAVGRLYVEAAFAGESKHVVEDLIAQIREVFIQTLDDLTWMDAETKKKAEEKALAIKERIGYPDDIISNENKLNNEYLELNYREDEYFENIIQNLKFSQSKQLKKLREKVDKDEWISGAAVVNAFYSSGRNQIVFPAGILQPPFFSAQQSNSLNYGGIGMVIGHEITHGFDDNGRNFNKDGDLVDWWTQQSANNFKDQSQCMVYQYGNFSWDLAGGQHLNGINTLGENIADNGGIGQAYRAYQNYVKKNGEEKLLPGLDLNHKQLFFLNFAQVWCGTYRPEYAVNSIKTDVHSPGNFRIIGTLQNSAEFADAFHCRKNSYMNPERKCRVW | −1.133 | −0.83 | −1.694 | 1.3345 | −0.675 | down
Q64338 (protein, UniProt Q64338 1-706, looked up, full-length) MESPTKEIEEFESNSLKHLQPEQIEKIWLRLRGLRKYKKTSQRLRSLVKQLERGEASVVDLKKNLEYAATVLESVYIDETRRLLDTEDELSDIQSDAVPSEVRDWLASTFTRQMGMMLRRSDEKPRFKSIVHAVQAGIFVERMYRRTSNMVGLSYPPAVIDALKDVDTWSFDVFSLNEASGDHALKFIFYELLTRYDLISRFKIPISALVSFVEALEVGYSKHKNPYHNLMHAADVTQTVHYLLYKTGVANWLTELEIFAIIFSAAIHDYEHTGTTNNFHIQTRSDPAILYNDRSVLENHHLSAAYRLLQEDEEMNILVNLSKDDWREFRTLVIEMVMATDMSCHFQQIKAMKTALQQPEAIEKPKALSLMLHTADISHPAKAWDLHHRWTMSLLEEFFRQGDREAELGLPFSPLCDRKSTMVAQSQVGFIDFIVEPTFTVLTDMTEKIVSPLIDESSQTGGTGQRRSSLNSINSSDAKRSGVKSSGSDGSAPINNSVIPVDYKSFKATWTEVVQINRERWRAKVPKEEKAKKEAEEKARLAAEEKQKEMEAKSQAEQGTTSKGEKKTSGEAKSQVNGTRKGDNPRGKNSKGEKAGEKQQNGDLKDGKNKADKKDHSNTGNESKKTDGTKKRSHGSPAPSTSSTSRITLPVIKPPLRHFKRPAYASSSYAPSVPKKTDDHPVRYKMLDQRIKMKKIQNISHHWNKK | 1.157 | 0.73 | 0.722 | 1.3705 | 1.805 | up
Q64176 (protein, UniProt Q64176 1-562, looked up, full-length) MCLSALILVSLAAFTAGAGHPSSPPMVDTVQGKVLGKYISLEGFTQPVAVFLGVPFAKPPLGSLRFAPPQPAEPWSSVKNATSYPPMCFQDPVTGQIVNDLLTNRKEKIPLQFSEDCLYLNIYTPADLTKSDRLPVMVWIHGGGLVLGGASTYDGLVLSTHENVVVVVIQYRLGIWGFFSTGDEHSRGNWGHLDQVAALHWVQDNIAKFGGDPGSVTIFGESAGGESVSVLVLSPLAKNLFQRAISESGVALTAGLVKKNTRPLAEKIAVISGCKNTTSAAMVHCLRQKTEEELLGTTLKLNLFKLDLHGDSRQSHPFVPTVLDGVLLPKMPEEILAEKNFNTVPYIVGINKQEFGWILPTMMNYPPSDVKLDQMTAMSLLKKSSFLLNLPEDAIAVAIEKYLRDKDYTGRNKDQLLELIGDVVFGVPSVIVSRGHRDAGAPTYMYEFQYSPSFSSEMKPDTVVGDHGDEIYSVFGAPILRGGTSEEEINLSKMMMKFWANFARNGNPNGQGLPHWPEYDQKEGYLQIGATTQQAQKLKEKEVAFWTELLAKKQLPTEHTEL | −1.21 | −1.21 | −1.557 | −1.2065 | −1.062 | down
Q60673 (protein, UniProt Q60673 1-979, looked up, full-length) MRRPRRPGGSGGSGGSGGLRLLVCLLLLSGRPGGCSAISAHGCLFDRRLCSHLEVCIQDGLFGQCQAGVGQARPLLQVTSPVLQRLQGVLRQLMSQGLSWHDDLTQHVISQEMERIPRLRPPEPHPRDRSGLVPRKPGPAGELLTQGNPTGSSPAAQGFPRPAGGRSWGGSPLSSLQAELLPPLLEHLLMPPQPPHPALTYEPALLQPYLFHQFGSRDGSRGSESSSGVVGVGHLSKAEGPALFSRSASKAILGTHSGHSFGDLTGPSPAQLFQDSGLLYMAQELPVPGRARAPRLPENGGNRAEDSSEGHEEEVLGGRGEKSPPQAAQPELSLQRLTAVLAGYGVELRQLTPEQFSTLLTLLQLLPKGTGRNLEGAVNVGGADVKKTIQQMQRGDPAEALPPTPSLPGYLTASPASSEVQQVLSPGFPEPPHTPSPLGSSSVLLEKKSPLGQSQPTVVGRPSARPSAEEYGYIVTDQKPLSLVAGVRLLEILAEHVHMSSGSFINISVVGPAVTFRIRHNEQNLSLADVTQQAGLVKSELEAQTGLQILQTGVGQREEAAEVLPRQAHGISPMRSVLLTLVALAGVAGLLVALAVALCMRHHSRQRDKERLAALGPEGAHGDTTFEYQDLCRQHMATKSLFNRAEGQPEPSRVSSVSSQFSDAAQASPSSHSSTPSWCEEPAQANMDISTGHMILAYMEDHLRNRDRLAKEWQALCAYQAEPNTCAAAQDESNIKKNRHPDFLPYDHARIKLKVESSPSRSDYINASPIIEHDPRMPAYIATQGPLSHTIADFWQMVWESGCTVIVMLTPLVEDGVKQCDRYWPDEGSSLYHVYEVNLVSEHIWCEDFLVRSFYLKNLQTQETRTLTQFHFLSWPAEGTPASTRPLLDFRRKVNKCYRGRSCPIIVHCSDGAGRTGTYILIDMVLNRMAKGVKEIDIAATLEHVRDQRPGLVRSKDQFEFALTAVAEEVNAILKALPQ | 1.189 | 1.189 | 1.249 | 0.8005 | 1.265 | up
